The results in this text go back to patent US20040116675A1 (published 2004).

Assay [1] has as its target T1, sCD28-Fc (extracellular domains of CD28 combined with the CH2 and CH3 domains of IgG1) (human, UniProt P10747 19-152).
T1 construct: extracellular domain; not shown: CH2 and CH3 domains of IgG1
Briefly: ELISA competition on coated sCD28-Fc against MuTN228-biotin, Expt 1. In general terms: An ELISA detects its analyte on a solid surface through an enzyme-linked reagent.

Assay [2] concerns the target T2, CD28 on P815/CD28+ cells (P815 mouse mastocytoma stably transfected with CD28) (human, UniProt P10747 19-220).
T2 construct: whole, on cells; also called CD28 antigen; CD28 molecules on P815/CD28^+ cells
In words: competition against ^125I-labeled MuTN228 on P815/CD28+ cells, Expt 1.

In assay [3] the target is T2, CD28 on P815/CD28+ cells (P815 mouse …). Briefly: competition against ^125I-labeled MuTN228 on P815/CD28+ cells, Expt 3.
For assay [4] the target is unchanged. In words: competition against ^125I-labeled MuTN228 on P815/CD28+ cells, Expt 2.
In assay [5] the target is T1, sCD28-Fc (extracellular domains of CD28 …). In words: ELISA competition on coated sCD28-Fc against MuTN228-biotin, average of 3 experiments (Std. Dev. 0.14).
Assay [6] has as its target T2, CD28 on P815/CD28+ cells (P815 mouse …). Briefly: competition against ^125I-labeled MuTN228 on P815/CD28+ cells, average of 3 experiments (St. Dev. 0.26).
For assay [7] the target is unchanged. Briefly: competition against ^125I-labeled MuTN228 on P815/CD28+ cells, reference MuTN228.
Assay [8] addresses T1, sCD28-Fc (extracellular domains of CD28 …). In words: ELISA competition on coated sCD28-Fc against MuTN228-biotin, Expt 2.
For assay [9] the target is unchanged. In words: ELISA competition on coated sCD28-Fc against MuTN228-biotin, reference MuTN228.

B1: HuTN228 (humanized TN228-IgG2M3) (antibody, V domains shown)
VH: QVQLQESGPGLVKPSETLSLTCAVSGFSLTSYGVHWIRQPPGKGLEWLGVIWPGGGTNFNSALMSRLTISEDTSKNQVSLKLSSVTAADTAVYYCARDRAYGNYLYAMDYWGQGTLVTVSS
VL: DIQMTQSPSSLSASVGDRVTITCRASESVEYYVTSLMQWYQQKPGKAPKLLIYAASNVDSGVPSRFSGSGSGTDFTLTISSLQPEDIATYYCQQSRKVPFTFGGGTKVEIK
Usually IC50 stands for the point on the concentration scale where inhibition reaches its midpoint. With B1, the IC50 in assay [1] is 0.37 µg/mL; in [2] it was 2.65 nM; in [3], 2.13 nM; in assay [4], 2.43 nM; in [5], 0.5 µg/mL; in assay [6], 2.4 nM. The IC50 in [8] was determined as 0.64 µg/mL. For the same molecule, in assay [7], the “fold less apparent binding affinity than MuTN228” value is around 2.4 fold. Also, the “fold less relative binding than MuTN228” value in assay [9] was found to be 2.6 fold.
